For five molecules, binding result and Kd results are on record in PMC4684408, “Co-evolution of Bacterial Ribosomal Protein S15 with Diverse mRNA Regulatory Structures”.

Residue numbers refer to the chain shown, from its start.

The target in data set [1] is T1, Ec-S15 (Escherichia coli, UniProt P0ADZ4 1-89). Nature of the data set: filter binding; 5'-32P and 3'-pCp label; 50 mM Tris/acetate pH 7.5, 20 mM Mg-acetate, 270 mM KCl, 5 mM DTT, 0.02% BSA, RNA <1 nM, 30 min at 25 C (thermophile RNAs also at 55 C).
For the next data set, the target named is Tt-S15 (Thermus thermophilus, UniProt Q5SJ76). Nature of the data set: filter binding; 50 mM Tris/acetate pH 7.5, 20 mM Mg-acetate, 270 mM KCl, 5 mM DTT, 0.02% BSA, RNA <1 nM, 30 min at 25 C (thermophile RNAs also at 55 C). The settings on record: protein: recombinant, label: 5'-32P.
Tt-S15, sequence (Q5SJ76 2-89): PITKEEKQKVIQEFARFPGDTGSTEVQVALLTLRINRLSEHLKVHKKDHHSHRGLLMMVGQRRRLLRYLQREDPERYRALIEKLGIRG
Another data set addresses Rr-S15 (UniProt A0ABD5LGG5 1-89). The data set is described as above. The settings on record: protein: recombinant; label: 5'-32P.
Data set [2] deals with T1, Ec-S15. Described as above.
In data set [3] the target is T2, Gk-S15 (UniProt Q5L0I3 1-89). Described as above. The settings on record: protein: recombinant, label: 5'-32P.
The target of data set [4] is T2, Gk-S15. Kind of data set: filter binding; max fraction bound <20%; 50 mM Tris/acetate pH 7.5, 20 mM Mg-acetate, 270 mM KCl, 5 mM DTT, 0.02% BSA, RNA <1 nM, 30 min at 25 C (thermophile RNAs also at 55 C). The settings on record: protein: recombinant; label: 5'-32P.

Rr-S15, sequence (A0ABD5LGG5 entry or part of it): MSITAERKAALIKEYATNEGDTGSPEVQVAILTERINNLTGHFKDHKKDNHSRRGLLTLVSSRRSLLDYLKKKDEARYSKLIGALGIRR

B1: Ec-mRNA WT (structured_RNA)
RNA: ACUGGGAUCGCUGAAUUAGAGAUCGGCGUCCUUUCAUUCUAUAUACUUUGGAGUUUUAAAAUGUCUCUAAGUACUGAAGCAACAGCU
In the case of B1, the binding result with Ec-S15 [1] is on record as “no binding”.

B2: Gk-mRNA M2 (structured_RNA)
RNA: GGUCAAUGUAUGCGAACCAUUCUCCGGCUAGGCGAGUCACCGACGCCCGCUCGGCAAUCGGGGAUCUAGGACUAGGGAGGUGAACAAGGAUGGCAUUGAA
Consider B2, for which the binding result in the data set with Tt-S15, with Rr-S15 and with Ec-S15 [2] was “no binding” each time.

B3: Tt-mRNA WT (structured_RNA)
RNA: GGCUUGGCGGGAGACCGCCUCGAGGAGGAAGGGGCUCAAAGCGCCUUCCCGCCUGACGGAGGGAAAACAUGCCCAUCACGAA
B3: the Kd (as a rule, the free concentration of one partner at which half of the binding sites on the other are occupied at equilibrium, for simple one-to-one binding) with Gk-S15 [3] (three-way junction) was 0.35 ± 0.23 nM; in the data set with Tt-S15 (three-way junction), 2.11 ± 0.25 nM.

B4: Tt-mRNA M1 (structured_RNA)
RNA: B3 RNA with U20A, C21A, G22A, A23U
Turning to B4, in the data set with Gk-S15 [4], the Kd worked out at 76.3 ± 5.7 nM.

B5: Rr-mRNA M1 (structured_RNA)
RNA: GGAUAGGCAGCGCCAGCUUGGGCUUUGCCUAUGCUGCUGAAUGGCCAGAGAAAGACGACAUCCCGGCUCUAGGCGUCCCCGUUUUUCCUUAAAACAAGAAAGGAUCGUACGAUGUCGAUUACUGCAGAGCGCAAAGCC
As for B5, the Kd came to 11.8 ± 6.9 nM in the data set with Gk-S15 [3] and 8.8 ± 1.8 nM with Tt-S15.
